Experimental data from PMC8034616.
Residue numbers refer to the chain shown, from its start.

Columns and labels:
[1] = test system: T1, H-NS A2 S2A (Shewanella oneidensis MR-1), ORF:b65510ad; experiment: EMSA
T1 sequence: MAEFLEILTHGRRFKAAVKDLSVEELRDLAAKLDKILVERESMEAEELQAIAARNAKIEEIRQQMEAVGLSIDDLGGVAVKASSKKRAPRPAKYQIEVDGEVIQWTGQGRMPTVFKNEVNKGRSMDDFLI

[2] = test system: T2, H-NS A42 S42A (Shewanella oneidensis MR-1), ORF:b65510ad; experiment: EMSA
T2 sequence: T1 sequence with A2S, S42A

[3] = test system: T3, H-NS A71 S71A (Shewanella oneidensis MR-1), ORF:b65510ad; experiment: EMSA
T3 sequence: T1 sequence with A2S, S71A

[4] = test system: T1, H-NS A2 S2A (Shewanella oneidensis MR-1), ORF:b65510ad; experiment: analytical ultracentrifugation
[5] = test system: T2, H-NS A42 S42A (Shewanella oneidensis MR-1), ORF:b65510ad; experiment: analytical ultracentrifugation
[6] = test system: T3, H-NS A71 S71A (Shewanella oneidensis MR-1), ORF:b65510ad; experiment: analytical ultracentrifugation

Measured: binding

GATTTTCTAGTGACAGAAGGTTTTAGCGTTGATAATGCCAAATATGCTGAATTATTTTTGAGACCGAGTAAATTTCTTAGGGGACCAAAAAAACGCATATAATACAATGGATAATGCAATTTAGGTGAGCAAAGGGGACCGTTTTTACCCCGTTTATTCATGCTTCATAACCATCTAATCTCAGGGTTGTAGACGTTTATTCACAACTCTGAGGACGATTATGAACACAACTCTCAC (double strand) [alpA promoter (PalpA)]
binds: [1] | [2] | [3] | [4] | [5] | [6]
